{
  "source": "paper PMC10516418",
  "about": "(2023)",
  "binders": {"B1": {"name": "MPE8 antigen-binding fragment (Fab) (Fab, V domains shown)", "VH": "EVQLVESGGGLVKPGGSLRLSCAASGFTFSSYSMNWVRQAPGKGLEWVSSISASSSYSDYADSAKGRFTISRDNAKTSLFLQMNSLRAEDTAIYFCARARATGYSSITPYFDIWGQGTLVTVSS", "VL": "QSVVTQTPSVSGAPGQRVTISCTGSSSNIGAGYDVHWYQQLPGTAPKLLIYDNNNRPSGVPDRFSASKSGTSASLAITGLQAEDEADYYCQSYDRNLSGVFGTGTKVTVL"}},
  "experiment_in_all_cases": "BLI",
  "key": {"v3B_Δ18": {"biological_target": "v3B_Δ18"}, "v3B_Δ15": {"biological_target": "v3B_Δ15"}, "v3B_Δ9": {"biological_target": "v3B_Δ9"}},
  "data": [
    {"binder": "B1", "values": [
      {"measurement": "Kd", "setting": "v3B_Δ18", "result": 690, "unit": "nM"},
      {"measurement": "Kd", "setting": "v3B_Δ15", "result": 62, "unit": "nM"},
      {"measurement": "Kd", "setting": "v3B_Δ9", "result": 87, "unit": "nM"}
    ]}
  ]
}
